Data as given in patent US20250034266A1 (ZAI LAB SHANGHAI, published 2025).
Residue numbers refer to the chain shown, from its start.

B1: 149F2C10_G29A (antibody, V domains shown)
VH: EVQLVESGGGLVQPKGSLKLSCAASGFTFNTYAMNWVRQAPGKGLEWVARIRSKSNFYATYYADSVKDRFTISRDDSQDMLYLQMNILKTEDTAIYYCVRGRDYGSSYAMDYWGQGTSVTVSS
VL: DIVMTQAAPSVPVTPGESVSISCRSSKSLLHSNANTYLYWFLQRPGQSPQLLIYRMSNLASGVPDRFSGSGSGTAFTLRISRVEAEDVGVYYCMQHLEYPLTFGAGTKLELK
notes: NG site removed variant of 149F2C10
B2: 149F2C10_G29I (antibody, V domains shown)
VH: B1 VH
VL: B1 VL with A34I
notes: as for B1
B3: 149F2C10_G29V (antibody, V domains shown)
VH: B1 VH
VL: B1 VL with A34V
notes: as for B1
B4: 149F2C10_N28I (antibody, V domains shown)
VH: B1 VH
VL: B1 VL with N33I, A34G
notes: as for B1
B5: 149F2C10_N28Q (antibody, V domains shown)
VH: B1 VH
VL: B1 VL with N33Q, A34G
notes: NG site removed variant of 149F2C10; detected with anti-mouse IgG
B6: 149F2C10_N28S (antibody, V domains shown)
VH: B1 VH
VL: B1 VL with N33S, A34G
notes: as for B1
B7: 149F2C10-CHO (antibody, V domains shown)
VH: B1 VH
VL: B1 VL with A34G
notes: The suffix -CHO is not explained
B8: Hu149-1 (antibody, V domains shown)
VH: EVQLVESGGGLVQPGGSLKLSCAASGFTFNTYAMNWVRQASGKGLEWVGRIRSKSNFYATYYAASVKGRFTISRDDSKNTAYLQMNSLKTEDTAVYYCVRGRDYGSSYAMDYWGQGTLVTVSS
VL: DIVMTQSPLSLPVTPGEPASISCRSSKSLLHSNANTYLYWFLQKPGQSPQLLIYRMSNLASGVPDRFSGSGSGTDFTLKISRVEAEDVGVYYCMQHLEYPLTFGGGTKVELK
notes: humanized IgG, detected with anti-human IgG
B9: Hu149-2 (antibody, V domains shown)
VH: B8 VH with N35H
VL: B8 VL
notes: humanized IgG
B10: Hu149-3 (antibody, V domains shown)
VH: B8 VH with Y61A
VL: B8 VL
notes: humanized IgG
B11: Hu149-5 (antibody, V domains shown)
VH: B8 VH
VL: B8 VL with F41Y
notes: humanized IgG
B12: Hu149-6 (antibody, V domains shown)
VH: B8 VH with N35H
VL: B8 VL with F41Y
notes: humanized IgG
B13: Hu149-7 (antibody, V domains shown)
VH: B8 VH with Y61A
VL: B8 VL with F41Y
notes: humanized IgG
B14: Hu149-8 (antibody, V domains shown)
VH: B8 VH with V99T
VL: B8 VL with F41Y
notes: humanized IgG
B15: Hu149-23 (antibody, human IgG1, V domains shown)
VH: B8 VH with S41P, Y61A, V99T, D103E
VL: B8 VL with E98K
notes: human IgG1
B16: Hu149-24 (antibody, human IgG1, V domains shown)
VH: B8 VH with S41P, Y61A, V99T, R102K, D103E
VL: B8 VL with E98K
notes: human IgG1

These binders were tested against T1, human CCR8 (human, UniProt P51685 1-355) (assay: FACS on HEK293-human CCR8 cells).
T1 construct: whole, on cells; also called hCCR8
Protocol: (§1) Binding affinities of NG site removed antibodies were determined on human CCR8 and cynomolgus CCR8 overexpression cells. Briefly, CFSE labeled HEK293-human CCR8 cells or CFSE labeled HEK293-cynomolgus CCR8 cells were mixed with HEK293 cells. The mixed ratio was 1:1. A total of 5×10⁴ mixed cells for each well were seeded in 96-well plates and washed by FACS buffer (DPBS containing 1% FBS) once. Cells were incubated by serial diluted purified hybridoma antibodies for 1 hour at 4° C. Antibodies were prepared with 3-fold serial dilution ranging from 100 nM to 0.0017 nM or from 25.3165 nM to 0.0004 nM in FACS buffer. […] After primary antibody incubation, cells were washed by FACS buffer for three times. Then, cells were stained with secondary antibody (Alexa Flu647-conj gated rabbit anti-mouse IgG, Jackson ImmunoResearch, #315606046) at 1:600 dilution in FACS buffer, incubated for 0.5 hour at 4° C. […] FlowJo software was used for analysis. Data was plotted as the logarithm of antibody concentration versus mean fluorescence signals. EC₅₀ values were calculated in GraphPad Prism 8 (GraphPad Software) using a log (agonist) vs. response-Variable slope (4 parameters) curve fit.

T1 sequence (P51685 whole entry): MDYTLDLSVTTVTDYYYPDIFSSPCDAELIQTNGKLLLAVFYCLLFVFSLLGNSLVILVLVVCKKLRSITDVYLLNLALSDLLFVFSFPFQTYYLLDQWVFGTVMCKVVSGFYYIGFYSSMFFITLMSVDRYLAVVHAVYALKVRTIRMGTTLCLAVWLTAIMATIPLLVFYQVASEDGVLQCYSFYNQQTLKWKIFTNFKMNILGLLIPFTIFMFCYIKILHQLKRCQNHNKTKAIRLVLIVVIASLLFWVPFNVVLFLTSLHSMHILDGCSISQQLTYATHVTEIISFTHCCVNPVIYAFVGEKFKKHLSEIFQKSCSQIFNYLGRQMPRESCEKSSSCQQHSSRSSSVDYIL

| Binder | EC50 [nM] | Max MFI [MFI] |
| --- | --- | --- |
| B1 | 0.129 | 2040 |
| B2 | 0.146 | 2060 |
| B3 | 0.194 | 1900 |
| B4 | 0.244 | 1650 |
| B5 | 0.161 | 1640 |
| B6 | 0.21 | 1420 |
| B7 | 0.142 | 1740 |

Target: T1, human CCR8
Experiment: FACS on HEK293-human CCR8 cells
Remark: another data set of the same source
Protocol: (§2) A total of 5×10⁴ cells for each well were seeded in 96-well plates and washed with FACS buffer (DPBD containing 1.5% FBS) for once. Antibodies were prepared with 3-fold serial dilution ranging from 100 nM to 0.0017 nM in FACS buffer. Cells were incubated with 50 μL of diluted antibodies at 4° C. for 1 hour. […] After primary antibody incubation, cells were washed for 3 times by FACS buffer. Then, cells were stained by Alexa Flu647 labeled anti-human IgG secondary antibody (Jackson ImmunoResearch, #109606170) or Alexa Flu647 labeled anti-mouse IgG secondary antibody (Jackson ImmunoResearch, #115605072) at 1:600 dilution in FACS buffer for 0.5 hour at 4° C. After washed for 3 times, Flow cytometry was performed to measure the binding.

| Binder | EC50 [nM] | Max MFI [MFI] |
| --- | --- | --- |
| B8 | 0.534 | 7610 |
| B9 | 3.48 | 1120 |
| B10 | 0.193 | 7000 |
| B11 | 15 | 2470 |
| B12 |  | 138 |
| B13 | 6.42 | 3110 |
| B14 | 0.24 | 3830 |

These binders were tested against T1, human CCR8 (assay: FACS on CHO-K1-human CCR8 cells).

| Binder | EC50 [nM] | Max MFI [MFI] |
| --- | --- | --- |
| B15 | 0.265 | 816000 |
| B16 | 0.166 | 844000 |

These binders were tested against T2, cynomolgus CCR8 (cynomolgus, UniProt G7NYJ2 1-355) (assay: FACS on HEK293-cynomolgus CCR8 cells).
T2 construct: whole, on cells
Protocol: as §1

T2 sequence (G7NYJ2 entry or part of it): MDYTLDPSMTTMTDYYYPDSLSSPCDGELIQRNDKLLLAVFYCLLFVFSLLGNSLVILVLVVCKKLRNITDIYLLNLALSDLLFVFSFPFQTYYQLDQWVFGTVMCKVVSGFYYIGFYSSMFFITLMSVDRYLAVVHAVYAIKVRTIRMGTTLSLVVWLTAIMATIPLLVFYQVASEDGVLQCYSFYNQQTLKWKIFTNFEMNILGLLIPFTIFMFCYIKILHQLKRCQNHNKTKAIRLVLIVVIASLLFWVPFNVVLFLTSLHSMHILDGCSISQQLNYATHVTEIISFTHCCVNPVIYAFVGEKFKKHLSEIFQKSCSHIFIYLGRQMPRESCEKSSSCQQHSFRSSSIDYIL

| Binder | EC50 [nM] | Max MFI [MFI] |
| --- | --- | --- |
| B1 | 0.173 | 4720 |
| B2 | 0.19 | 4640 |
| B3 | 0.211 | 4680 |
| B4 | 0.314 | 1890 |
| B5 | 0.209 | 2450 |
| B6 | 0.333 | 2020 |
| B7 | 0.131 | 3310 |

Target: T2, cynomolgus CCR8
Experiment: FACS on HEK293-cynomolgus CCR8 cells
Remark: another data set of the same source
Protocol: as §2

| Binder | EC50 [nM] | Max MFI [MFI] |
| --- | --- | --- |
| B8 | 0.578 | 20900 |
| B9 | 146 | 1550 |
| B10 | 0.205 | 19900 |
| B11 |  | 414 |
| B12 |  | 443 |
| B13 |  | 488 |
| B14 |  | 2420 |

Target: T2, cynomolgus CCR8
Experiment: FACS on HEK293-cynomolgus CCR8 cells
Remark: another data set of the same source

| Binder | EC50 [nM] | Max MFI [MFI] |
| --- | --- | --- |
| B15 | 0.369 | 4.32e+06 |
| B16 | 0.161 | 3.9e+06 |

The binders below were run against T1, human CCR8 (assay: FACS on HuT78 cells (endogenous human CCR8)).
Protocol: HuT78 cells expressing endogenous human CCR8 were used for determining binding affinities of selected affinity matured anti-CCR8 antibodies. Briefly, a total of […] cells for each well were seeded in 96-well plates and washed with FACS buffer (DPBS containing […]) for once. […] Cells were incubated with 50 μL of diluted antibodies at 4° C. for 1 hour. After primary antibody incubation, cells were washed for 3 times by FACS buffer. Then, cells were stained by Alexa Fbu647 labeled anti-human IgG secondary antibody (Jackson ImmunoResearch, #109606170) at 1:600 dilution in FACS buffer for 0.5 hour at 4° C. After 3 times washed, flow cytometry (Sartourius, iQue3) was performed to measure the binding affinities of antibodies. […]

| Binder | Max MFI [MFI] |
| --- | --- |
| B15 | 161000 |
| B16 | 198000 |

These binders were tested against T1, human CCR8 (assay: FACS, competition with CCL1 on CHO-K1-human CCR8 cells).

| Binder | IC50 [nM] | Max Inhibition (%) |
| --- | --- | --- |
| B15 | 0.259 | 103 |
| B16 | 0.172 | 106 |

What follows are binders tested against T1, human CCR8 (assay: FACS, competition with AF647-human CCL1 on CHO-K1-human CCR8 cells).
Protocol: Blocking curves were generated to rank the blocking activities of PTM sites removed antibodies. Briefly, a total of 5×10⁴ CHO-K1-human CCR8 cells for each well were seeded in 96-well plate. Cells were incubated by series diluted purified hybridoma antibodies and 4 nM AF647 labeled human CCL1 (Almac, #CAF-07) for 1 hour at 4° C. Antibodies were prepared with 3-fold serial dilution ranging from 100 nM to 0.0051 nM in FACS buffer. Then, cells were washed by FACS buffer for three times after incubation. […] FlowJo software was used for analysis. Data was plotted as the logarithm of antibody concentration versus mean fluorescence signals. IC₅₀ values were determined in GraphPad Prism 8 (GraphPad Software) using a log(agonist) vs. response-Variable slope (4 parameters) curve fit.

| Binder | IC50 [nM] | Max Inhibition (%) |
| --- | --- | --- |
| B1 | 0.725 | 77.5 |
| B2 | 1.09 | 70.7 |
| B3 | 1.04 | 72 |
| B4 | 2.25 | 65.3 |
| B5 | 3.07 | 55.7 |
| B6 | 15 | 44.9 |
| B7 | 0.934 | 80.1 |

Target: T1, human CCR8
Experiment: as above
Remark: another data set of the same source

| Binder | IC50 [nM] | Max Inhibition (%) |
| --- | --- | --- |
| B8 | 0.936 | 99.2 |
| B9 | 12.5 | 39.5 |
| B10 | 0.478 | 99.2 |
| B11 | 49.6 | 57.3 |
| B12 | 2.37 | 1 |
| B13 | 37.8 | 59 |
| B14 | 1.24 | 86.5 |
